Key:
[1] = target: PCAF histone acetyltransferase (full length, purified recombinant) (UniProt Q92831 1-832, limits assumed); test: cell-based or functional assay
[2] = target: p300 histone acetyltransferase (full length, purified recombinant) (UniProt Q09472 2-2414, limits assumed); test: cell-based or functional assay
p300 histone acetyltransferase (full length, purified recombinant), sequence (Q09472 2-2414 limits assumed): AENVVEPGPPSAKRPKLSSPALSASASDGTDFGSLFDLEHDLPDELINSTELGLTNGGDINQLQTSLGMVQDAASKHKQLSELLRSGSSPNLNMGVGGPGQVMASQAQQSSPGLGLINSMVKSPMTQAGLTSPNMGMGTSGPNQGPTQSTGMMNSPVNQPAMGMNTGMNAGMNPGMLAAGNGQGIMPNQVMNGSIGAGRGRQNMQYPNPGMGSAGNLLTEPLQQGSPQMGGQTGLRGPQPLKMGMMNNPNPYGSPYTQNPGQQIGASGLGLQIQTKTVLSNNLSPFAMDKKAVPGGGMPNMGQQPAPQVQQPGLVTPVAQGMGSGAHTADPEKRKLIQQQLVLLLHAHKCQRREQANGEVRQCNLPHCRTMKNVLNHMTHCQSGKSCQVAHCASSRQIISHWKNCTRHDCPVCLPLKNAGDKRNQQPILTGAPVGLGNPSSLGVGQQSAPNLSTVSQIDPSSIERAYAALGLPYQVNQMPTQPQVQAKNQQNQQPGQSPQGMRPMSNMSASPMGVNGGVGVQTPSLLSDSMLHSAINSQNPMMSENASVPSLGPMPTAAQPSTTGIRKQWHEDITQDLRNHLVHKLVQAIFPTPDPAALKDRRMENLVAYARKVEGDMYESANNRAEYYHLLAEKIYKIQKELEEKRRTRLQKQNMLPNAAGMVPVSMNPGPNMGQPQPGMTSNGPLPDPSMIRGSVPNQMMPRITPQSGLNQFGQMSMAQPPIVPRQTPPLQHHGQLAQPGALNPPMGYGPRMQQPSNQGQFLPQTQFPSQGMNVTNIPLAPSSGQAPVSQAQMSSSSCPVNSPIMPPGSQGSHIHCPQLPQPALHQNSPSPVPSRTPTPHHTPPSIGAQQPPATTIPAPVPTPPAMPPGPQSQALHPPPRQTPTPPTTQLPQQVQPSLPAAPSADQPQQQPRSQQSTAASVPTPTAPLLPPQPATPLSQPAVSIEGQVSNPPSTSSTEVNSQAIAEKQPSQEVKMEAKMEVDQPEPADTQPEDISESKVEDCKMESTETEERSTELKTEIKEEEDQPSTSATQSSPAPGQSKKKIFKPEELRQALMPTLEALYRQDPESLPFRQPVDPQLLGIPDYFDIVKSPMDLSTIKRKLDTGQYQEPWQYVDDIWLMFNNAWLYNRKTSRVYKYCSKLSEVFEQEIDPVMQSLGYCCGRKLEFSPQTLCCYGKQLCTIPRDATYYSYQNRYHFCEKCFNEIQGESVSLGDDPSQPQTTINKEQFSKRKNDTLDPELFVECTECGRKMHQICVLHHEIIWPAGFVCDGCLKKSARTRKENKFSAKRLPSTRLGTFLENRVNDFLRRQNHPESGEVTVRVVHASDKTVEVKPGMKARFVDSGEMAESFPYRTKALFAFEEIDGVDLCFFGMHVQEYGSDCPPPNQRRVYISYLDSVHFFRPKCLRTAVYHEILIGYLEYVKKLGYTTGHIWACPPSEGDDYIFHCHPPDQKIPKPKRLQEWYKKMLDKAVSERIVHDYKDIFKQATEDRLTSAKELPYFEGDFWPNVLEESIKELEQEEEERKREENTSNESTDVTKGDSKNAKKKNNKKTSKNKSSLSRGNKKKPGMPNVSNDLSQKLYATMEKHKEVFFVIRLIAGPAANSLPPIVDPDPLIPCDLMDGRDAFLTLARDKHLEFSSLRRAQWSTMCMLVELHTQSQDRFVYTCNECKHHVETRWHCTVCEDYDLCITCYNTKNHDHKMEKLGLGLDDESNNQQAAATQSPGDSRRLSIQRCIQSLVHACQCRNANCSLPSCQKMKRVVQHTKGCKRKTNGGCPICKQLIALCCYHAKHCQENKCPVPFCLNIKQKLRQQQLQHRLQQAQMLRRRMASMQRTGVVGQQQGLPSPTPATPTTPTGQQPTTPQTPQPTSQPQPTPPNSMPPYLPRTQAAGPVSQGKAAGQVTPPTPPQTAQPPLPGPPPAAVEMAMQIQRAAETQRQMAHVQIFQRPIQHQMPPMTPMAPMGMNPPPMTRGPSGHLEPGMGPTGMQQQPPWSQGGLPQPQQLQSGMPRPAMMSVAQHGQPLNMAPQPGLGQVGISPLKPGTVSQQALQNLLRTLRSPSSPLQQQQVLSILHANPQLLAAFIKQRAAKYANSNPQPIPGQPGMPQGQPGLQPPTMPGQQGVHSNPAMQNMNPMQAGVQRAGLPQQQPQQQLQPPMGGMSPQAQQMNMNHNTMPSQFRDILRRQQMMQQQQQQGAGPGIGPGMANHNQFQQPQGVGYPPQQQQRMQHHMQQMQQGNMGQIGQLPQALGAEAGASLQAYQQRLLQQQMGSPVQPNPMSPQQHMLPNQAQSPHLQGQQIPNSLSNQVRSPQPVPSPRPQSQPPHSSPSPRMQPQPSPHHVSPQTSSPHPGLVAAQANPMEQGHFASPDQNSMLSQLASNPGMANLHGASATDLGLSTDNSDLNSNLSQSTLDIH

PCAF histone acetyltransferase (full length, purified recombinant), sequence (Q92831 whole entry): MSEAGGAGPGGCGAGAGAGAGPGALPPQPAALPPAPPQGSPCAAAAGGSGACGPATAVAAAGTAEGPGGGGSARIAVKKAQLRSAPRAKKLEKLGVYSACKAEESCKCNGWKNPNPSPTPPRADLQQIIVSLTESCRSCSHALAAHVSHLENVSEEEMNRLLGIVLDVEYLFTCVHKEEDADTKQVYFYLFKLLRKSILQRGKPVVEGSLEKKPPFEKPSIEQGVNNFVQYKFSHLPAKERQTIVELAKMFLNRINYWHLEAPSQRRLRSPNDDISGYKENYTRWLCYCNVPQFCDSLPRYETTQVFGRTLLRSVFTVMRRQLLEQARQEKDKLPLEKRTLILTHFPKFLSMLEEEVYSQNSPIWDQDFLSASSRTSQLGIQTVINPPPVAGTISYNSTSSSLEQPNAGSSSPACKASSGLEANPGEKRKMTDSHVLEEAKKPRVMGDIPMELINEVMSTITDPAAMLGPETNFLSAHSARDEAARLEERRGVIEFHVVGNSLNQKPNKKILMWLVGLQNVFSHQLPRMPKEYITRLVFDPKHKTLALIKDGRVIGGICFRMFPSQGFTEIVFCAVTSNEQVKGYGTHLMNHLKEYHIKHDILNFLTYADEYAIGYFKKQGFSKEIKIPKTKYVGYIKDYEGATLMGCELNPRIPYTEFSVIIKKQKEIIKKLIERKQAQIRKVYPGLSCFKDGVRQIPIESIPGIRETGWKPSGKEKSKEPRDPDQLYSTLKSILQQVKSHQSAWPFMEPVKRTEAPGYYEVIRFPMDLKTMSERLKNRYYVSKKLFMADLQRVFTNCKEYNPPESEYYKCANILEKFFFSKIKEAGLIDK

- IC50 with PCAF (µM), HAT activity inhibition, mixed histones [1]: > 20 µM
- IC50 with p300 (µM), HAT activity inhibition, mixed histones [2]: > 30 µM
Binder: Ac-GGKAPRK-NH2 (also: further groups not given here) [H3-CoA-7]
